Experiments:
[1] = test system: CD3+ T lymphocytes from normal HLA-A2+ donors; assay: Phenotypic analysis of peptide-stimulated T cells (flow cytometry); type: cell-based, human; conditions: after peptide stimulation; for percentage of CD8+ T cells: unstimulated cultures 33%; for percentage of CD4+ T cells: unstimulated cultures 64%
Procedure: Peptide-specific CTL (that is, XBP1, CD138, or CS1-peptide-specific CTL) were generated ex vivo by repeated stimulation of CD3^+ T lymphocytes obtained from normal HLA-A2^+ donors with XBP1, CD138, or CS1-peptide-pulsed antigen-presenting cells (APC), either T2 cells or mDC. In brief, T2 cells were washed and resuspended in serum-free AIM-V medium (Gibco BRL) and pulsed overnight at 37° C. with 50 μg/ml of the appropriate XBP1 or CD138 peptide. Peptide-pulsed APC were washed, counted, irradiated at 10 Gy and used to prime CD3^+ T cells at a 1:40 T2/peptide (stimulator)-to-CD3^+ T cell (responder) ratio in AIM-V medium supplemented with 10% human AB serum (BioWhittaker, Walkersville, Md.). The T cell cultures were restimulated every seven days with irradiated APC/peptide for a total of 4 cycles to generate XBP1 peptide-specific CTL (XBP1-CTL), CD138 peptide-specific CTL (CD138-CTL), or CS1 peptide-specific CTL (CS1-CTL). It is clear from the foregoing that “XBP1-CTL,” “CD138-CTL,” and “CS1-CTL” referred to herein are not clonal (or homogenous) populations. Rather, the XBP1-CTL, CD138-CTL, and CS1-CTL cells are heterogenous populations of lymphocytes comprising XBP1 peptide-, CD138 peptide-, or CS1 peptide-specific CTL along with non-specific CTL, APCs, and other lymphocytes obtained from the normal donors. 50 U/ml of interleukin-2 (IL-2) was added to the cultures two days after the second stimulation. Control T cell cultures (unstimulated with peptide) were maintained in AIM-V medium supplemented with 10% human AB serum containing 50 U/ml IL-2.
To determine the phenotype of the XBP1-CTL, CD4, or CD8 expression by the cells was detected using anti-CD4-PE or anti-CD8-FITC mouse anti-human mAbs. In addition, a variety of other expression markers were detected on the cells using combinations of either FITC-conjugated anti-CD69/PE-conjugated-anti-CD45RO or FITC-conjugated anti-CD45RA-FITC/PE-conjugated anti-CCR7 mouse anti-human mAbs. Alternatively, HLA-A2 expression by U266, McCAR, ML-2 and MM1S cells was determined using an FITC-conjugated anti-HLA-A2 anti-human mAb. After contacting the cells with antibodies for 15 minutes at 4° C., the cells were washed and analyzed using a FACSort™ flow cytometer with CellQuest v2.1 software (Becton Dickinson).
Cytotoxic T lymphocytes (CTL) are defined phenotypically by the expression of distinct cell surface antigens (e.g., CD8). Cell surface antigens can also be used to further define CTL as naïve or activated memory cells. For example, naïve humanCTL can be identified by the presence of CD45RA^+/CCR7^+, whereas activated human memory cells can be identified as CD69^+/CD45RO^+. Flow cytometry was performed on populations of human T cells stimulated with the heteroclitic peptides to determine the percentage of CTL that were naïve or activated memory cells. […] The unstimulated control T cells or CD138-CTL were further examined for naïve (CD45RA^+/CCR7^+) or activated memory (CD69^+/CD45RO^+) cell status.

[2] = target: T1, HLA-A2 molecules on the surface of human T2 cells (Homo sapiens, UniProt P04439, D140Y/D185E/D98H/E176V/E277Q/G131W/G231S/I119V/I121R/I166T/I218V/L300P/L318F/N151K/N90K/P208A/P217A/Q86G/Q94H/R138H/R169H/T345S); type: binding; conditions: non-spliced XBP1 peptides (FIG. 1), 50 μg/ml peptide (30 μg/ml influenza peptide), overnight
CD8+ T cells = assay: Expansion of P2 peptide-specific CS1-CTL (HLA-A*0201 P2-tetramer / anti-CD8 flow analysis); type: cell-based, human; conditions: after the fourth re-stimulation with peptide-presenting dendritic cells
[3] = target: T1, HLA-A2 molecules on the surface of human T2 cells; assay: Peptide stability assay (peptide/HLA-A2 binding stability post-Brefeldin A); conditions: for HLA-A2 binding stability (HLA-A2 up-regulation on T2 cells) versus native counterpart: spliced XBP1 heteroclitic peptides (FIG. 4)
McCAR cells = assay: CTL proliferation by CFSE tracking, stimulation with McCAR cells; type: cell-based, human; conditions: cultured with McCAR cells, day 4
Procedure: XBP1-CTL or CD138-CTL were washed twice in PBS (Gibco-BRL) and resuspended in RPMI-1640 culture medium at a concentration of 1×10^6 cells/ml. CFSE (Molecular Probes, Eugene, Oreg.) in the form of a 5 mM stock solution in DMSO was added to the CTL to give a final concentration of 5 μM and incubated for 10 minutes at 37° C. in a CO2 incubator protected from light. After incubation, a volume of ice-cold PBS (containing 2% FCS) equivalent to five-times the volume of the CTL cells was added to the cells to quench the reaction. Cells were incubated for 5 minutes on ice, centrifuged and resuspended in fresh PBS (containing 2% FCS) after a total of three washings. CFSE-labeled T cells were adjusted to a concentration of 2×10^6 cells/ml with RPMI culture medium, stimulated with 2×10^5 cells/ml McCAR cells, ML-2 cells, MM1S cells, or no cells. The stimulated CFSE-labeled cells were examined on by FFC analysis day 4.
XBP1-CTL were exposed to carboxyfluoroscein succinimidyl ester (CFSE) as described above. Proliferation of the XBP1-CTL in response to stimulation with various tumor lines was determined by measuring the amount of CFSE in the cells. CFSE is a membrane permeable dye, which is taken up by cells. […] Thus, the number of cell divisions can be determined as the inverse of the concentration of dye in each cell of a population.

Sequence: GLVGLIFAV (listed as Homo sapiens) [CD138 #2p, native CD138 peptide]
- percentage of CD8+ T cells [1]: 82%
- percentage of CD4+ T cells [1]: 15%

Sequence: ILAVLTLQI (listed as Homo sapiens) [XBP1189-197, native non-spliced XBP1 peptide]
- affinity for HLA-A2, HLA-A2-mean fluorescence intensity (MFI) [2]: significant affinity for HLA-A2 affinity, although less than that of XBP1184-192

Sequence: KLLLENQLL (listed as Homo sapiens) [XBP1110-118, native non-spliced XBP1 peptide]
- affinity for HLA-A2, HLA-A2-mean fluorescence intensity (MFI) [2]: significant affinity for HLA-A2 affinity, although less than that of XBP1184-192

Sequence: LLREKTHGL (listed as Homo sapiens) [XBP1117-125, native non-spliced XBP1 peptide]
- affinity for HLA-A2, HLA-A2-mean fluorescence intensity (MFI) [2]: significant affinity for HLA-A2 affinity, although less than that of XBP1184-192

Sequence: RMSELEQQV (listed as Homo sapiens) [XBP193-101, native non-spliced XBP1 peptide]
- affinity for HLA-A2, HLA-A2-mean fluorescence intensity (MFI) [2]: significant affinity for HLA-A2 affinity, although less than that of XBP1184-192

Sequence: SLFVLGLFL (listed as Homo sapiens) [P2, native CS1 peptide]
- percentage of cells bound by both HLA-A*0201 P2-tetramer and anti-CD8 antibody (CD8+ T cells): Approximately 4.1%

Sequence: VLTLQIQSL (ILAVLTLQI; listed as Homo sapiens) [XBP1192-200, native non-spliced XBP1 peptide]
- affinity for HLA-A2, HLA-A2-mean fluorescence intensity (MFI) [2]: significant affinity for HLA-A2 affinity, although less than that of XBP1184-192

Sequence: YILDNLDPV (listed as Influenza virus) [heteroclitic peptide derived from native spliced XBP1 #1p]
- HLA-A2 binding stability (HLA-A2 up-regulation on T2 cells) versus native counterpart [3]: did not exhibit a significant increase in HLA-A2 stability over its native counterpart

Sequence: YLFPQLISV (listed as Homo sapiens) [SP XBP1 #3M, heteroclitic spliced XBP1 367-375 peptide]
- time for which higher level of HLA-A2 up-regulation was maintained ([3]; in Brefeldin A after removing unbound peptide (FIG. 4)): 6 h
- HLA-A2 binding stability (HLA-A2 up-regulation on T2 cells) versus native counterpart [3]: increase in HLA-A2 up-regulation on T2 cells
- CTL proliferation (M1 gated, CFSE) (McCAR cells): 42%
- percentage of CD69+/CD45RO+ (activated memory) cells ([1]; control T cells 4%): 64%
- percentage of CD8+ T cells [1]: 75%
- percentage of CD4+ T cells [1]: 18%

— patent US9096681B2, “XBP1, CD138, and CS1 peptides” (Dana-Farber Cancer Institute, Inc., priority 2008, dated 2015)
